Test results as given in paper PMC2137827.
Values joined by “and” are separate entries in the source; they are usually repeats but may differ in a detail not shown here. Equal entries are not always repeated. Where two headings read alike, the source gives them in different places.

Key:
[1] = target: IQGAP1 (native, from bovine adrenal) (bovine (endogenous in adrenal)); test: co-purification with quantitative immunoblot
[2] = target: IQGAP1 (native, from bovine adrenal) (bovine (endogenous in adrenal)); test: co-purification with quantitative immunoblot; remark: listed apart in the source
[3] = target: F-actin assembled from purified rabbit skeletal muscle actin (rabbit) (UniProt P68135); test: co-sedimentation
[4] = target: IQGAP1 (native, from bovine adrenal) (bovine (endogenous in adrenal)); test: AUC

| Substance | stoichiometry N (mol calmodulin per mol 190K) [1] | stoichiometry N (mol calmodulin per mol 190K) [2] | percent of IQGAP1 able to bind F-actin (other experiments) [3] [%] | stoichiometry N (subunits per molecule) [4] |
| --- | --- | --- | --- | --- |
| Calmodulin co-purifying with native IQGAP1 from bovine adrenal (from UniProt P62157 1-149) (natural protein) | 0.067 and 0.042 and 0.026 | 0.05 |  |  |
| IQGAP1 (native, from bovine adrenal) (natural protein) |  |  | 85 | 2 |
